# Experimental data published in article PMC12173945, “Import mechanism of peroxisomal proteins with an N-terminal signal sequence” (Nature Cell Biology, 2025).
# Experiments:
# [1] = tested on: YG hydrogel (wild-type YG-domain polypeptide of PEX13); test: YG hydrogel permeation assay, wild-type hydrogel (Fig. 2, Fig. 3g, Extended Data Fig. 9d); settings: wild-type hydrogel
# Procedure: A solution of the purified wild-type YG-domain polypeptide (or the variant lacking the KPWE motif) was concentrated to 2 mM in 50 mM HEPES·NaOH pH 7.8 at RT, 2 M urea and 2 mM TCEP. Aliquots of 2 µl were then spotted on the bottom of multiple wells of a 96-well glass-bottomed plate (Cellvis, P96-1.5H-N), which was then sealed with a gas-impermeable AlumaSeal II film (Hampton Research, HR8-069) to prevent desiccation and incubated at RT for 24 h. Before each assay, the resulting gels were equilibrated overnight at RT in a 100-fold excess of Assay Buffer (25 mM HEPES·NaOH pH 7.8 at RT, 150 mM NaCl and 1 mM TCEP). A 0.5 µM solution of fluorescently labelled protein in Assay Buffer was then added to the samples, with or without additional components at the concentrations indicated in the text, and incubated at RT. Gels were imaged at the times indicated in the text using a Nikon A1R point-scanning confocal system consisting of an inverted Nikon Eclipse Ti microscope and a Nikon ×20 0.75 NA Plan Apo air objective. The objective was centred on the gel edge and focus was maintained 5 µm above the glass surface using the Nikon Perfect Focus System. Fluorescence was excited through a 405/488/561/647 quad-band dichroic (Chroma), using a 488-nm solid-state laser (Coherent) and a galvano scanner. A 50-nm emission band was collected on a gallium arsenide phosphide detector, using an ET525/50m (525 ± 25 nm) single-band bandpass filter (Chroma) and a pinhole dilated to 0.9 Airy units. Images were acquired using the Nikon NIS-Elements software with a pixel size of 1 µm and a 12-bit digitizer. Imaging parameters were configured to maximize the SNR while avoiding saturation. All samples intended to be compared were imaged using identical acquisition settings.
# (§1) For the YG hydrogel permeation assay, images were first oriented such that each gel edge faced the same direction. Fluorescence profiles across the buffer–gel interface were then generated by centering a 60 × 300 µm rectangular area on the gel edge and then measuring the mean fluorescence at each position within this selection. To express the resulting values in terms of fold enrichment, the fluorescence at each position along the selection was normalized to the average fluorescence in the buffer and plotted in terms of the distance from the gel edge.
# To calculate permeation rates through the YG hydrogel, a 60 × 300 µm rectangular area was first centred on the gel edge. The resulting region was then thresholded to demarcate the permeation zone (that is, the distance traversed by the fluorescent species) from the buffer and non-permeated part of the gel. The width of the area above the threshold was then measured and plotted as a function of time. A linear fit to the data yielded the permeation rate.
# [2] = tested on: peroxisomes in Xenopus egg extract; test: Peroxisomal protein import assay in Xenopus egg extract; format: biochemical, Xenopus laevis; settings: GFP fusion, 1 h
# Procedure: Import reactions were performed exactly as described in a previously published protocol. Briefly, extract was mixed with 500 nM of the indicated cargo and 100 nM of the indicated receptor variants with or without 100 nM PEX7, and incubated at 24 °C. Where stated, endogenous PEX5 was first depleted from the extract using agarose beads covalently conjugated to the high-affinity PEX5-binding domain from PEX14. Recombinant proteins were diluted in XBHS buffer (40 mM HEPES·KOH pH 7.7 at RT, 100 mM KCl, 1 mM MgCl2, 0.1 mM CaCl2 and 250 mM sucrose) before being added to the reactions. For imaging, an aliquot of each reaction was sandwiched between two 22 × 22 mm no. […] The samples were illuminated by an 80-mW solid-state 488-nm laser through a Di01-T405/488/568/647 dichroic (Semrock), and fluorescence was collected through a Nikon ×100 1.45 NA Plan Apo Lambda oil-immersion objective and a green-emission ET525/50 m (525 ± 25 nm) single-band bandpass filter (Chroma). […]
# To calculate import rates in Xenopus egg extract, images were first thresholded to identify peroxisomes that were within the focal plane. A circular area with a diameter of 3 pixels was then centred on each local maximum and the mean fluorescence within this area was measured; the average fluorescence in the cytosol was then subtracted from the measured values. […]
# [3] = tested on: YG hydrogel (∆KPWE YG-domain polypeptide of PEX13); test: YG hydrogel permeation assay, hydrogel lacking the KPWE motif (Fig. 3g); settings: 1 h
# Procedure: A solution of the purified wild-type YG-domain polypeptide (or the variant lacking the KPWE motif) was concentrated to 2 mM in 50 mM HEPES·NaOH pH 7.8 at RT, 2 M urea and 2 mM TCEP. Aliquots of 2 µl were then spotted on the bottom of multiple wells of a 96-well glass-bottomed plate (Cellvis, P96-1.5H-N), which was then sealed with a gas-impermeable AlumaSeal II film (Hampton Research, HR8-069) to prevent desiccation and incubated at RT for 24 h. Before each assay, the resulting gels were equilibrated overnight at RT in a 100-fold excess of Assay Buffer (25 mM HEPES·NaOH pH 7.8 at RT, 150 mM NaCl and 1 mM TCEP). […] Fluorescence was excited through a 405/488/561/647 quad-band dichroic (Chroma), using a 488-nm solid-state laser (Coherent) and a galvano scanner. […]
# as §1
molecule,measurement,setting,value
"PEX7–GFP: PEX7 fused at the C terminus to a linker (SGSG) followed by mEGFP (protein, left off: GST, N-terminal, cleaved | GFP, C-terminal, kept) MLRYHMQGFSGYGVQYSPFFDNRLAVAAGSNFGLVGNGKLFILEIDRSGRIVEVNSFLTQDCLFDLAWNESHENQVLVAQGDGTLRLFDTTFKEFPIAIFKEHEREVFSCNWNLVNRQNFLSSSWDGSIKIWSPLRKQSLMTLTPRPLEITKMVDPLNAIILKKKSFTGISKNRNCVYQAQFSPHDQNLVLSCSGNSYASLFDIRLPSGKNQNNFLVHSGLEALTCDFNKYRPYVVATGGVDNAIRIWDIRMLNKNESATIKRTVPGQLHNSSCINEIPNAHGLAIRKVTWSPHHSNILMSASYDMTCRIWRDLSNDGAKETYKTNSTDATKGSIFNFTQHSEFVFGADWSLWGKPGYVASTAWDGNLFVWNGLG",Entry into YG hydrogel,[1],readily entered the phase
same,Import into peroxisomes in Xenopus egg extract,[2],enters peroxisomes only when it is assembled into a complex with PEX5 and cargo
"PEX7: full-length PEX7 from S. cerevisiae (GenBank accession no. NP_010426.1) (protein, left off: GST, N-terminal, cleaved) MLRYHMQGFSGYGVQYSPFFDNRLAVAAGSNFGLVGNGKLFILEIDRSGRIVEVNSFLTQDCLFDLAWNESHENQVLVAQGDGTLRLFDTTFKEFPIAIFKEHEREVFSCNWNLVNRQNFLSSSWDGSIKIWSPLRKQSLMTLTPRPLEITKMVDPLNAIILKKKSFTGISKNRNCVYQAQFSPHDQNLVLSCSGNSYASLFDIRLPSGKNQNNFLVHSGLEALTCDFNKYRPYVVATGGVDNAIRIWDIRMLNKNESATIKRTVPGQLHNSSCINEIPNAHGLAIRKVTWSPHHSNILMSASYDMTCRIWRDLSNDGAKETYKTNSTDATKGSIFNFTQHSEFVFGADWSLWGKPGYVASTAWDGNLFVWNGLG",Entry into YG hydrogel lacking the KPWE motif,[3],some entry of PEX7 into YG hydrogels was observed in the absence of the KPWE motif
